Test: soluble on expression in E. coli; label from the status in PepcDB or PDB records

Row | Sequence | soluble on expression in E. coli
1 | MKPSWDIFCSVVDNYGDAGVTWRLARQLVAEHDVQVRLWIDDLAAFVRLCPDADPCASQQLREGVSVCRWPADWVSSTVPDVVIEAFACRLPTSYTESMLQRSPRPLWLNLEYLSAEDWVSGCHGLPSPQMNGLKKFFFFPGFADTTGGLLRERNLIGQRQAFQQDKALQQAFLQELNVEPLAGARLISVFAYETPRLDSWLDALASDSRPTHLLVPEGRILADVQRWLGSEGQLHAGTVQASGALTVQVLPFIRQERYDQLLWSCDFNVVRGEDSFVRAQWAGRPMLWHIYQQEEDAHLPKLDAFLALYL | not soluble
2 | GSKFLNKRLSEREFDPDIHCGVIDLDTKKPCTRSLTCKTHSLTQRRAVQGRRKRFDVLLAEHKNKTREKELIRH | soluble
3 | SSSIKVECVIKEKNEVGESPVWEEKDSSLLYVDITGQKVSRWSSLTKQIESMNTEKLVGCVVPRQAGGYVIAEGTRFAFVDWVKRSITAVAEVNEKPNTRFNDGKVDPAGRFFAGTMSMDMKPDVVDAALYNLQPDHSVVRHFDQVHLSNGLDWSLDHRVFYYIDSLAFMVEAFDYDIQTGGLSNRRTVYKMEKDEGIPDGMCIDTEGKLWVACFNGGRVLRIDPQTGKRLQTVKLPAERITSCCFGGKDYSDLYITSAYIGMDAEALAKQPEAGCTFKVTGLGVKGIPPYSYTG | soluble
4 | MADLIARLREDGIQKRVIQEGRGELPDFQDGTKATFHFRTLHSDNEGSVIDDSRTRGKPMELIVGKKFKLPVWETIVCTMREGEIAQFLCDIKHVVLYPLVAKSLRNIAEGKDPLEGQRHCCGIAQMHEHSSLGHADLDALQQNPQPLIFHIEMLKVESPGTYQQDPWAMTDEEKAKAVPVIHQEGNRLYREGQVKEAAAKYYDAIACLKNLQMKEQPGSPDWIQLDLQITPLLLNYCQCKLVAQEYYEVLDHCSSILNKYDDNVKAYFKRGKAHAAVWNAQEAQADFAKVLELDPALAPVVSRELRALETRIRQKDEEDKARFRGIFSH | soluble
5 | MGSDKIHHHHHHMNTDIAKNTNSLNDDKKSNSEQRPYGIVLYGATSFVGQITAHYLAEFLSTSKDASGTTVTWAIAGRDEKKLNELQSKLASKVNIIIANSDDATSLDELTEQTQVIISTVGPYLKYGEPLIKSCVDNGTDYVDLTGEAIFIKDMIDKYQEAAKQSGARIVNSCGFDSIPSDLGVYFTQKQAEAKFDSACDVIHMRVKAAKGGLSGGTIASMATIFEEVGQDKSRRKQVANPYLLNDDKDVPNVRQSNVSKPEYDSEHKRWLAPFVMASINTRIVHRSNQLLGYEYGRDFKYDEAMWMKDGIKGKLTSYALSAGLLGFATAMMITPSRELLSKHVLPKSGSGPSKEEQENGYFDIRLFGKTANKETIATKVTGDKDPGYGSTSRMLSQAALCLAQDISKEAVGGGFWTPASAMGDKLLARLKEHAGLSFDVIDR | not soluble
6 | MNNPKAISKQTLLRLPSYLSYLKSLPKQDGEYVSATMIASALGLNDVQVRKDLACVSKKGRPKLGYVAEELIRDIESFLGYDSLNDAIIVGAGRLGGALLSYEGFKEYGLNIVAAFDIDESKIGTEICGRKIFPLDKMKELCRRMKIRIGIITVPADSAQKVCDMLVDSGIYAIWNFAPVHLKVPDNILVQQENMAASLAVLSAHLAEAIKNNGIGKGDEENDENSE | not soluble
7 | MGSSHHHHHHGGTGENLYFQGGSGDLLHFISLVIDLRDYPGYATCIRATEYPGLALCEYNAVAGMRYTVPLGYAASAVYFYLYHRPRLSFADRSLTKLHHYFYPSAGYSTPLGIIGGVICGAAECVQGLTPAALEATAAREKAAAVMAAEQYSQRHRAVKERLKAEQSFASKALAWLQLCEDPVQAELARMGLGEDSIAWETLLVPQGYLWTQLHSVVHDPARYRGYEAPVATGAAVPTSADERLSQPSGGANTPCPSPSGVLSLSRAYFTKPQVDAVVSRIGTLRTSPEEDRWMRSAGRCGAYGVFGMLLTWNSGGALFRAQMGLGLGVVIAGLASATRLDEVFAHL | not soluble
8 | DCCSCQEKWVGYRCNCYFISSEQKTWNESRHLCASQKSSLLQLQNTDELDFMSSSQQFYWIGLSYSEEHTAWLWENGSALSQYLFPSFETFNTKNCIAYNPNGNALDESCEDKNRYICKQQLI | soluble
9 | MGSDKIHHHHHHMNGHLNDCLICDGKLEYLDAAEEMECVICHKKHLNNVRCINRHYICDECHSKRGAKIILEVCRTTDSKNPIEIMQKLMAKPFIHMHGPEHHILTGAALLAAYHNSGGQLDLNKALNEIERRAKQVPGGACGFWGCCGAAISTGMFISIATGATPLSEREWSLSNLITSKVLRRISALGGPRCCKRNCFTAAKVAVEFTGEQLAVNMELPVDICCFFSPNNHECKGALCPYSPQHSNS | not soluble
10 | SGELGEHRASLLSNPIPEVKTLGELKQGQNNGNLDLESEPFGSHWLQGSKATTGRTSEEPEEEIPPEEMAGEELPETSNLDGPLQQDLEVEVVEMSHLSITERTPSVSTAKGRKKRSRRLLELAKPKTNWQCLRDRPSVYWTERFIEDTTLTITVPVVSQRMEELSRPKRFYQEYYNNNRTTPIWSIPRSTLEYQASNRLKQLATPKVRNNIWSINMSEVSQVSRAAQMAVPTPRTLRLAKPRPPATLLEEWDPMPKPKPYVSDYNRLLQLATPKALSEKCVPDRSPQWEVLDVTKNAVASSRIISLAQPKIRKDLNEGYNPYYISPASLVAQASPRIYELATPKYITKKV | soluble
11 | MGSDKIHHHHHHMKTFLESLKFPVQEVNKKSSGEKGPGRPPYWEMVFYWTRKPLVGARSVIAGALLPENVDENLFKAAVRLSSPTPHRENPQIPAEFAKYFEGKKLLDPFAGFGSIPLEGLRLGLDVTAVELLPTTYIFLKAVLEYPKKFGKSLVKDVERWGEWITEQLKNDPEIRELYDDDVAVYIGTWEIRCPHCGRWTPAIGNFWLARVKDGKGYKRLAYMKPERKGDEIEIRVIDLNEILDDISKANVDGNEIIFEGENYVKTVEEAVRDGKLKQSDVKIDGNTVIFEVPSANIESRRDQLTCLMCGNVIKYADENGNHHMKLKNGDFYVKFALRKYHEGDERFARQRLLVKVKVKDGDLIFEPATKEDSEKLWKAKEKVREMLEKGDLDVPSEAIPLYENRRITPILSAEKWYQFFNPRQLLTLIKIVRLIREVGRKVEEEKIAEGWNKERAFEYAEAVATYLSTAMLKYAYYNSIVTRWDSTWWKIGETMSTRGIAMNWNWTESPWFSSFGGMIKTLLAILRGVKYLTSALSSSQRTLADFTENSVKVLQGDATSLNLGEKFDVIVTDPPYADDVPYTELSDFYYVWLKRALSDVENGKLIPRFHKEAFFKRIGPKWVEIKTQWQEFAKKEVSTNPGRFMEDENKKEKAVQHFENLFSQAFVAMREHLKDDGVLVTYYAHTDPGSWINLIEAGWRRARLQITRAIPLTTESETSIVSRGKMSLDTSIVAVWRKQKEEKTVQISTLKEEIERKAKSSAREFIEYGYEGLDLLYGVMAAALEEVTKYREISSLKGPLTTEEILNEYVYPATIRGIVNAIAEIEGTGTLHSGTAMFYTAYKILFGNASLSANDIVLLRLATSTDPSELISSGVLKEKRSSSSKEYTLYTPDLLGKKALDTKEFQKFLHEKKLDPVEPKPKNSVDVLQLLEYYSLLGRSRVKEEIEKLRKMWAGEVEEALFIARLVSEYYAEIYIRKIDPVRRMKEEFASEIDRELEKDGFLEVVLMRRLLGYVGGAV | not soluble
12 | DPQSVETALNVAREGLVLLKNENNILPINPQKYKHIIVTGKNAHGYVHGGGSGAVVPFHYTNLFDGIQKEGKLNNVKVEYIDELDFMPSIMYTDDNLNEKGFHAEYFKNIHFEGAPVVKQTEKKINYSWAAGTELEGMPKDYFSVKWYSTMCVDETADYEFTLGGDDGYKLFINDQPIIDDWTPGGFRTTNVTKTLKAGEKYHVRVEYYQQGGGAGICFLWKRKNETQNKFADYLNKADLVIACFGHSSDTEGEASDRTFELPEVDKKMLASLSGCKKPVIGIVNAGGNIEMQKWEPSLKGLIWGFYGGQEAGTAIGEALFGKVNPSGKLPMTFEKKWEDSPAYNSYHDPDKDKHVAYTEGIFIGYRGYDKLKREVQYPFGYGLSYTTF | not soluble
13 | MPGIDKLPIEETLEDSPQTRSLLGVFEEDATAISNYMNQLYQAMHRIYDAQNELSAATHLTSKLLKEYEKQRFPLGGDDEVMSSTLQQFSKVIDELSSCHAVLSTQLADAMMFPITQFKERDLKEILTLKEVFQIASNDHDAAINRYSRLSKKRENDKVKYEVTEDVYTSRKKQHQTMMHYFCALNTLQYKKKIALLEPLLGYMQAQISFFKMGSENLNEQLEEFLANIGTSVQNVRREMDSDIETMQQTIEDLEVASDPLYVPDPDPTKFPVNRNLTRKAGYLNARNKTGLVSSTWDRQFYFTQGGNLMSQARGDVAGGLAMDIDNCSVMAVDCEDRRYCFQITSFDGKKSSILQAESKKDHEEWICTINNISKQIYLSENPEETAARVNQSALEAVTPSPSFQQRHESLRPAAGQSRPPTARTSSSGSLGSESTNLAALSLDSLVAPDTPIQFDIISPVCEDQPGQAKAFGQGGRRTNPFGESGGSTKSETEDSILHQLFIVRFLGSMEVKSDDHPDVVYETMRQILAARAIHNIFRMTESHLLVTCDCLKLIDPQTQVTRLTFPLPCVVLYATHQENKRLFGFVLRTSSGRSESNLSSVCYIFESNNEGEKICDSVGLAKQIALHAELDRRASEKQKEIERVKEKQQKELNKQKQIEKDLEEQSRLIAASSRPNQASSEGQFVVLSSSQSEESDLGEGGKKRESEA | soluble
14 | MSLASTIMSQEVSWTDILEKHPALRWIKPIPEDWEIFPKHLCAFESFLYVAVGQEVRSLDCRLLKHKNEASHKNFYKKLFNPELDFMIEQICLSKNGRFLAVVGKSKIVILGLRSKLSEQNPLAESVSNFGESVNNFSNSEHQENGTNSLKLSEVTICSVAVINPSSQIVSVRFHPLGKSGRSLVVLTETSLLLYEAGNGVLMPDYEIPLKLTHQASNSFDADVDLHIPTAFCFSNVSQGWGVFTIYILTRGGDVFSVCPVMPANAMIPQDVLKQIRLILTKKEDDADAENHRRNVHWITKLLGEAALANDLSTSEGHHHHHH | soluble
15 | MKKIALTLAATSITLVSYSAFSAQDAEHVRLATTTSTYHSGLLDYLLPQFEKDTGYKVDVIAAGTGKALKMGENGDVDLVMTHAPKAEGTFVEKGYGVLPRKLMYNDFVIVGPKADPAKIKDDESVLDVFKEIANKNATFISRGDDSGTHKKEMGFWAQTKIEPNFGGYRSVGQGMGPTLNMASEMQGYTMSDRGTWLAYQNKLDLEILFQGDEKLFNPYQVILVNPERYPTINYQGAKAFSDWLVNPRGQELINGFRLNGKQLFVANAESK | not soluble
16 | MGSDKIHHHHHHMIPKNIHLIFLRKDEPFPELFEKCKQEIQVNHPDWNIRLYNKDDAQDILNQDLPEYIEAYNAFYHNVQKADFLRLALVYLYGGFYMDLDMLSLKPLDELRKYNLVLGEEKIVCQAEQEALNLRYRLRIANYMFGGIPKHPFLHRIMDEMAERATIILKSQQEILDITGPGLLTDTYWDNYGMYTDITLLRNTDKRCRQPYHNEISCHFGDYAAHLHAGTWRTGI | not soluble
17 | MMSSGPLDPSDVTLFTSYPSPIVVPLEFIEEQSKSSREELEIDESGLYIMSKALEEFMRTVMRGATQNGSRLLDYDSIAEFFANSEFRALKDFFPERVRFDEIESEILPTRATGPSNSS | not soluble
18 | MRGSHHHHHHGSPPAAPITLWTGPGPSINGFINDTPVIRCFICLTRDSNLVTVNASFVGEGGYRIVSPTQSQFSLIMEFDQFGQLMSTGNINSTTTWGEKPWGNNTVQPRPSHTWKLCMPNREVYSTPAATISRCGLDSIAVDGAPSRSIDCMLIINKPKGVATYTLTFRFLNFNRLSGGTLFKTDVLTFTYVGENQ | soluble
